Laboratory results published in the Human Domainome abundance scans (Beltran et al. 2025).
± gives the uncertainty stated by the source.

B1: POU domain, class 5, transcription factor 1, residues 134 to 212; numbered along this chain, Q01860 (parent)
chain: EESQDIKALQKELEQFAKLLKQKRITLGYTQADVGLTLGVLFGKVFSQTTICRFEALQLSFKNMCKLRPLLQKWVEEAD

Variants of: B1
Assay: abundance fitness (aPCA) (normalised: wild type 0, dead -1); higher = more abundant; growth selection in yeast, the domain comes from the species named
Conditions: Homo sapiens

Variant | abundance fitness
EESQDIKALQKELEQFAKLLKQKRITLGYTQADVGLTLGVLFGKVFSQTTICRFEALQLSFKNMCKLRHLLQKWVEEAD | -0.208 ± 0.28
EESQDIKALQKELEQFAKLLKQKRITLGYTQADVGLTLGVLFGKVFSQTTICRFEALQLSFKNMCKLRNLLQKWVEEAD | -0.008 ± 0.27
EESQDIKALQKELEQFAKLLKQKRITLGYTQADVGLTLGVLFGKVFSQTTICRFEALQLSFKNMCKLRGLLQKWVEEAD | -0.085 ± 0.13
EESQDIKALQKELEQFAKLLKQKRITLGYTQADVGLTLGVLFGKVFSQTTICRFEALQLSFKNMCKLRLLLQKWVEEAD | -0.351 ± 0.13
EESQDIKALQKELEQFAKLLKQKRITLGYTQADVGLTLGVLFGKVFSQTTICRFEALQLSFKNMCKLRVLLQKWVEEAD | -0.414 ± 0.099
EESQDIKALQKELEQFAKLLKQKRITLGYTQADVGLTLGVLFGKVFSQTTICRFEALQLSFKNMCKLRRLLQKWVEEAD | -0.613 ± 0.13
EESQDIKALQKELEQFAKLLKQKRITLGYTQADVGLTLGVLFGKVFSQTTICRFEALQLSFKNMCKLRWLLQKWVEEAD | -0.999 ± 0.29
EESQDIKALQKELEQFAKLLKQKRITLGYTQADVGLTLGVLFGKVFSQTTICRFEALQLSFKNMCKLRQLLQKWVEEAD | -0.618 ± 0.43
EESQDIKALQKELEQFAKLLKQKRITLGYTQADVGLTLGVLFGKVFSQTTICRFEALQLSFKNMCKLRMLLQKWVEEAD | -0.662 ± 0.21
EESQDIKALQKELEQFAKLLKQKRITLGYTQADVGLTLGVLFGKVFSQTTICRFEALQLSFKNMCKLRFLLQKWVEEAD | -0.473 ± 0.3
EESQDIKALQKELEQFAKLLKQKRITLGYTQADVGLTLGVLFGKVFSQTTICRFEALQLSFKNMCKLRTLLQKWVEEAD | -0.652 ± 0.2
EESQDIKALQKELEQFAKLLKQKRITLGYTQADVGLTLGVLFGKVFSQTTICRFEALQLSFKNMCKLRKLLQKWVEEAD | -0.304 ± 0.18
EESQDIKALQKELEQFAKLLKQKRITLGYTQADVGLTLGVLFGKVFSQTTICRFEALQLSFKNMCKLRPLTQKWVEEAD | -0.246 ± 0.16
EESQDIKALQKELEQFAKLLKQKRITLGYTQADVGLTLGVLFGKVFSQTTICRFEALQLSFKNMCKLRPLFQKWVEEAD | -0.562 ± 0.29
EESQDIKALQKELEQFAKLLKQKRITLGYTQADVGLTLGVLFGKVFSQTTICRFEALQLSFKNMCKLRPLYQKWVEEAD | -0.435 ± 0.28
EESQDIKALQKELEQFAKLLKQKRITLGYTQADVGLTLGVLFGKVFSQTTICRFEALQLSFKNMCKLRPLCQKWVEEAD | -0.474 ± 0.2
EESQDIKALQKELEQFAKLLKQKRITLGYTQADVGLTLGVLFGKVFSQTTICRFEALQLSFKNMCKLRPLVQKWVEEAD | -0.728 ± 0.17

Variant | abundance fitness
EESQDIKALQKELEQFAKLLKQKRITLGYTQADVGLTLGVLFGKVFSQTTICRFEALQLSFKNMCKLRPLDQKWVEEAD | -0.869 ± 0.42
EESQDIKALQKELEQFAKLLKQKRITLGYTQADVGLTLGVLFGKVFSQTTICRFEALQLSFKNMCKLRPLMQKWVEEAD | -0.251 ± 0.13
EESQDIKALQKELEQFAKLLKQKRITLGYTQADVGLTLGVLFGKVFSQTTICRFEALQLSFKNMCKLRPLRQKWVEEAD | -0.509 ± 0.11
EESQDIKALQKELEQFAKLLKQKRITLGYTQADVGLTLGVLFGKVFSQTTICRFEALQLSFKNMCKLRPLSQKWVEEAD | -0.911 ± 0.26
EESQDIKALQKELEQFAKLLKQKRITLGYTQADVGLTLGVLFGKVFSQTTICRFEALQLSFKNMCKLRPLQQKWVEEAD | -0.658 ± 0.27
EESQDIKALQKELEQFAKLLKQKRITLGYTQADVGLTLGVLFGKVFSQTTICRFEALQLSFKNMCKLRPLPQKWVEEAD | -0.07 ± 0.17
EESQDIKALQKELEQFAKLLKQKRITLGYTQADVGLTLGVLFGKVFSQTTICRFEALQLSFKNMCKLRPLWQKWVEEAD | -0.323 ± 0.15
EESQDIKALQKELEQFAKLLKQKRITLGYTQADVGLTLGVLFGKVFSQTTICRFEALQLSFKNMCKLRPLEQKWVEEAD | -0.344 ± 0.16
EESQDIKALQKELEQFAKLLKQKRITLGYTQADVGLTLGVLFGKVFSQTTICRFEALQLSFKNMCKLRPLAQKWVEEAD | -0.51 ± 0.13
EESQDIKALQKELEQFAKLLKQKRITLGYTQADVGLTLGVLFGKVFSQTTICRFEALQLSFKNMCKLRPLHQKWVEEAD | -0.207 ± 0.24
EESQDIKALQKELEQFAKLLKQKRITLGYTQADVGLTLGVLFGKVFSQTTICRFEALQLSFKNMCKLRPLLQEWVEEAD | -0.595 ± 0.17
EESQDIKALQKELEQFAKLLKQKRITLGYTQADVGLTLGVLFGKVFSQTTICRFEALQLSFKNMCKLRPLLQCWVEEAD | -0.397 ± 0.17
EESQDIKALQKELEQFAKLLKQKRITLGYTQADVGLTLGVLFGKVFSQTTICRFEALQLSFKNMCKLRPLLQYWVEEAD | -0.595 ± 0.37
EESQDIKALQKELEQFAKLLKQKRITLGYTQADVGLTLGVLFGKVFSQTTICRFEALQLSFKNMCKLRPLLQHWVEEAD | -0.349 ± 0.33
EESQDIKALQKELEQFAKLLKQKRITLGYTQADVGLTLGVLFGKVFSQTTICRFEALQLSFKNMCKLRPLLQLWVEEAD | -0.289 ± 0.11
EESQDIKALQKELEQFAKLLKQKRITLGYTQADVGLTLGVLFGKVFSQTTICRFEALQLSFKNMCKLRPLLQQWVEEAD | -0.1 ± 0.14
EESQDIKALQKELEQFAKLLKQKRITLGYTQADVGLTLGVLFGKVFSQTTICRFEALQLSFKNMCKLRPLLQTWVEEAD | -0.083 ± 0.12
